In article PMC10960309:

Legend:
Assay in all cases: purified protein
Settings in all cases: 50 mM sodium borate pH 9.5, 37°C, 1.9 mM OPA, 1 mM DTT, 5% DMSO
purified protein [1] = substrate: CCCCCCCCCCCC(=O)N[C@H]1CCOC1=O
purified protein [2] = substrate: CCCCCCCCCC(=O)N[C@H]1CCOC1=O
purified protein [3] = substrate: CCCCCCCC(=O)N[C@H]1CCOC1=O
purified protein [4] = substrate: CCCCCCCCCC(=O)CC(=O)N[C@H]1CCOC1=O

B1: PvdQ (Pseudomonas aeruginosa PAO1) (protein)
chain 1: DMPRPTGLAADIRWTAYGVPHIRAKDERGLGYGIGYAYARDNACLLAEEIVTARGERARYFGSEGKSSAELDNLPSDIFYAWLNQPEALQAFWQAQTPAVRQLLEGYAAGFNRFLREADGKTTSCLGQPWLRAIATDDLLRLTRRLLVEGGVGQFADALVAAAPPGAEKV
chain 2: SNAIAVGSERSADGKGMLLANPHFPWNGAMRFYQMHLTIPGRLDVMGASLPGLPVVNIGFSRHLAWTHTVDTSSHFTLYRLALDPKDPRRYLVDGRSLPLEEKSVAIEVRGADGKLSRVEHKVYQSIYGPLVVWPGKLDWNRSEAYALRDANLENTRVLQQWYSINQASDVADLRRRVEALQGIPWVNTLAADEQGNALYMNQSVVPYLKPELIPACAIPQLVAEGLPALQGQDSRCAWSRDPAAAQAGITPAAQLPVLLRRDFVQNSNDSAWLTNPASPLQGFSPLVSQEKPIGPRARYALSRLQGKQPLEAKTLEEMVTANHVFSADQVLPDLLRLCRDNQGEKSLARACAALAQWDRGANLDSGSGFVYFQRFMQRFAELDGAWKEPFDAQRPLDTPQGIALDRPQVATQVRQALADAAAEVEKSGIPDGARWGDLQVSTRGQERIAIPGGDGHFGVYNAIQSVRKGDHLEVVGGTSYIQLVTFPEEGPKARGLLAFSQSSDPRSPHYRDQTELFSRQQWQTLPFSDRQIDADPQLQRLSIRE
Q: Which Km (purified protein [1]) does the source give for B1 here?
A: 98.1 ± 34.1 µM

Q: And the Km (purified protein [2])?
A: (1.13 ± 0.42) × 10^2 μM

Q: What about the Km (purified protein [3]) of the same protein?
A: (1.18 ± 0.34) × 10^2 μM

Q: What about the Km (purified protein [4]) of the same protein?
A: (2.35 ± 0.07) × 10^2 μM

Q: And the kcat (purified protein [4])?
A: 5.23 ± 0.55 s⁻¹

Q: What about the kcat/Km (purified protein [4]) of the same protein?
A: 22200 ± 4000 M⁻¹ s⁻¹
